Where two headings read alike, the source gives them in different places. Each block holds one binder with its values, some of them ahead of it.
Legend:
[1] = target: T1, human GARP-proTGFβ1 complex (human, UniProt Q14392 18-627; P01137 30-390, limits assumed); assay: Octet (bio-layer interferometry), yeast expressed IgG1Agly antibody, antigen at a single 100 nM per Example 6
T1 construct: Exemplary entries; also called Hu GARP-proTGFβ1; huGARP proTGFb1

[2] = target: T2, mouse LTBP3-proTGFβ1 complex (mouse, UniProt Q61810 41-1245; P04202 30-390, limits assumed); assay: as above
T2 construct: Exemplary entries; also called Mo LTBP3-proTGFβ1; Murine LTBP3 proTGFb1
T2 sequence (Q61810 other isoform, or with tags, fused parts or gaps limits assumed, chain 1 of 2): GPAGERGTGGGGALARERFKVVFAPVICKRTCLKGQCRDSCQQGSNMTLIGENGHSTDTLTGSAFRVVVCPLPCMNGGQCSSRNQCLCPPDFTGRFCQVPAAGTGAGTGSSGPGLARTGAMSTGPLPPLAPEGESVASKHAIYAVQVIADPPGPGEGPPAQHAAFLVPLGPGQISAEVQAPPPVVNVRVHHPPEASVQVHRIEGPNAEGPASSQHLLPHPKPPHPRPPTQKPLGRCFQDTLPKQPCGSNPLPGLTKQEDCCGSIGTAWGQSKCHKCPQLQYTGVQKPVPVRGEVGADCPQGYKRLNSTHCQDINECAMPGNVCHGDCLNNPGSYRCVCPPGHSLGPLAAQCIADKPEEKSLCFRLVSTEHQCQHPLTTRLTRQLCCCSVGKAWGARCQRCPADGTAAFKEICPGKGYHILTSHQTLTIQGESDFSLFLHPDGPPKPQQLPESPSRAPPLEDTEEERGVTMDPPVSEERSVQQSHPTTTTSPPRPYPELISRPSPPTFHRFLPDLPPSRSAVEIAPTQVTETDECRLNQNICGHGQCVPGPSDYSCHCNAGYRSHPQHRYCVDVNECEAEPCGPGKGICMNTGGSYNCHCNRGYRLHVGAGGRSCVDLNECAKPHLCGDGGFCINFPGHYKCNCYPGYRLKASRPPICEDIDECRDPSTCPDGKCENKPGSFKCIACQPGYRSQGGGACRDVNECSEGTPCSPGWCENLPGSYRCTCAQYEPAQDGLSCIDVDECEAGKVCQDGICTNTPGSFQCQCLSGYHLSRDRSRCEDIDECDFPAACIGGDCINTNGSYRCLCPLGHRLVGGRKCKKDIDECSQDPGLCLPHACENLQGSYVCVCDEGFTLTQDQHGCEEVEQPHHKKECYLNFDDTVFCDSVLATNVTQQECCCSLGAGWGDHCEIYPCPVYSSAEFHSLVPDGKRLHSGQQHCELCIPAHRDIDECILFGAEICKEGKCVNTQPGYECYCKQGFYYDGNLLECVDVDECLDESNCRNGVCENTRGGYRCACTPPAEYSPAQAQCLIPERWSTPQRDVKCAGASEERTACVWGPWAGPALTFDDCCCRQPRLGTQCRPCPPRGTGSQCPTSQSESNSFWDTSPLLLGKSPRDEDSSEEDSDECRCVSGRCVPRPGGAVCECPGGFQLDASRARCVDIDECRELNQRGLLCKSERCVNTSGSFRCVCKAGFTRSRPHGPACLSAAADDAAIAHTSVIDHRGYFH
T2 sequence (P04202 30-390 limits assumed, chain 2 of 2): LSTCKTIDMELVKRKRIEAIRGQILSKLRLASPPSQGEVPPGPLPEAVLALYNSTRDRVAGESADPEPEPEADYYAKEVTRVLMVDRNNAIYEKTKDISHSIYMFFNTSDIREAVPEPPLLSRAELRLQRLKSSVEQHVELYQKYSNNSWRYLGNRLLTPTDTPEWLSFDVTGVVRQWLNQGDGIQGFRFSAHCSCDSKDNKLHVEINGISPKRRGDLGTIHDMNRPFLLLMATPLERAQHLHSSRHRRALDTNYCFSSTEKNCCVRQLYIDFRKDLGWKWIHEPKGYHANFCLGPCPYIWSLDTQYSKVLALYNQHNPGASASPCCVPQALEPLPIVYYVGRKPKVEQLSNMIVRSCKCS

[3] = target: T3, human LTBP1-proTGFβ1 complex (human, UniProt Q14766 347-1721; P01137 30-390); assay: Octet binning; competitor (immobilized second antibody) SR-AB13
T3 construct: Large latent complex: one presenting molecule disulfide-linked to a proTGFβ1 dimer; also called Hu LTBP1-proTGFβ1; huLTBP1 proTGFβ1
T3 sequence (Q14766 347-1721 limits assumed, chain 1 of 2): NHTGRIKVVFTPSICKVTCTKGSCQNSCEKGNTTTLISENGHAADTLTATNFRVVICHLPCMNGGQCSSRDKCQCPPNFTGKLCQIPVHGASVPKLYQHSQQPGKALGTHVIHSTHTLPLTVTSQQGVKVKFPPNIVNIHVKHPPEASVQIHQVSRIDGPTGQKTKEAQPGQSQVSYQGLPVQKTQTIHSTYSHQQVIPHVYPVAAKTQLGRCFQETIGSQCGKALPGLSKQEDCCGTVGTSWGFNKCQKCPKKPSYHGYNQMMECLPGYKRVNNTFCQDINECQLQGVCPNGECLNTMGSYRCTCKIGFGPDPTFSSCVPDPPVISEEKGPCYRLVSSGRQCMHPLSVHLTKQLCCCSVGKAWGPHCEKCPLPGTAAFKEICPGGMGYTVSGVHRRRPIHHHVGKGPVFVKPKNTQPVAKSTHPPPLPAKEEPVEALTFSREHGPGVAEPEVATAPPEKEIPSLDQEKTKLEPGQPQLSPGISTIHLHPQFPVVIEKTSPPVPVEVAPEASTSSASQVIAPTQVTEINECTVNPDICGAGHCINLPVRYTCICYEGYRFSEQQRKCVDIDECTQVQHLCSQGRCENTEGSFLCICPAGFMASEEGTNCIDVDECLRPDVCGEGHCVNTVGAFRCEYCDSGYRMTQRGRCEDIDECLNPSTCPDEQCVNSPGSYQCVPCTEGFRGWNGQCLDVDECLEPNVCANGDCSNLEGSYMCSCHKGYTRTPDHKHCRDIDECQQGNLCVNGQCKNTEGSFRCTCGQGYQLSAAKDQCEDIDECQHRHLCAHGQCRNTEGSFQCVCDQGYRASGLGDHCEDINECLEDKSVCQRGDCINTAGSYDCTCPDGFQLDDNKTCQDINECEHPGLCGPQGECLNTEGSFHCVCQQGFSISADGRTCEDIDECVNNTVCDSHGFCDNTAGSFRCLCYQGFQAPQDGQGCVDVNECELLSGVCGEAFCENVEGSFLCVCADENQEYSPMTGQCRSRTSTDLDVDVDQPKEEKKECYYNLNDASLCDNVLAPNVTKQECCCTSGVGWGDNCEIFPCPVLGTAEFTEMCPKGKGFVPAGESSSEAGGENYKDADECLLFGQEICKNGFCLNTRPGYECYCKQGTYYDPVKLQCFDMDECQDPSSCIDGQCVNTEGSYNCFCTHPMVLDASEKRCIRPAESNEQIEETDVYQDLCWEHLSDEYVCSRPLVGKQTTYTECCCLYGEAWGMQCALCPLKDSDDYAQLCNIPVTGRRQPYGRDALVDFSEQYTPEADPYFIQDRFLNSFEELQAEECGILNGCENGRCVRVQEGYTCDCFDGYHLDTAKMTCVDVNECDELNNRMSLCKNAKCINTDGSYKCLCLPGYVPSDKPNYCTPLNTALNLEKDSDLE
T3 sequence (P01137 30-390 limits assumed, chain 2 of 2): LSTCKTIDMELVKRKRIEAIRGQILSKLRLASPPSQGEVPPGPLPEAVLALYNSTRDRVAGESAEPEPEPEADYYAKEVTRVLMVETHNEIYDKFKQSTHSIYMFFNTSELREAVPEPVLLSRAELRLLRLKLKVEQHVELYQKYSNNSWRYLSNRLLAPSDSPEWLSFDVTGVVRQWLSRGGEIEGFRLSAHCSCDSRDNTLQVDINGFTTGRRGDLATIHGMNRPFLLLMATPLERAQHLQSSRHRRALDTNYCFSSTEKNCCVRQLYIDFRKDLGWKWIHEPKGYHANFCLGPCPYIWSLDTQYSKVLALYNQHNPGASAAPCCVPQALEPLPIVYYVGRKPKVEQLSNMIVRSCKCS
Method: (§1) 500 nM of human LTBP1-proTGFb1 complex was pre-incubated with 1 μM of each test antibody. After an overnight incubation, the LTBP1-proTGFβ1+first antibody was tested for binding to a second antibody which was immobilized to an Anti-Human IgG Fc Capture (AHC) sensor tip at 67 nM. The sensor tip was blocked with a negative control antibody (HuNeg) before seeing the LTBP1-proTGFβ1+first antibody.
(§2) Normalized responses less than 70% or less than 0.7 of the uninhibited interaction were considered antibodies that cross block.

[4] = target: T3, human LTBP1-proTGFβ1 complex; assay: Octet binning; competitor (immobilized second antibody) SR-AB10
Method: as §1, §2

[5] = target: T3, human LTBP1-proTGFβ1 complex; assay: Octet binning; competitor (immobilized second antibody) SR-AB1
Method: as §1, §2

[6] = target: T4, human LTBP3-proTGFβ1 complex (human, UniProt Q9NS15 44-1303; P01137 30-390, limits assumed); assay: Octet BLI, IgG captured
T4 construct: Exemplary entries; also called Hu LTBP3-proTGFβ1; huLTBP3 proTGFb1
Method: (§3) LTBP complex-specific antibodies from the first round of affinity maturation/optimization (SR-AB14, SR-AB16, SR-AB17, SR-AB18, SR-AB19) were selected for a second round of affinity maturation/optimization (i.e., CDR-H3 mutagenesis as described herein) and particular progeny antibodies (SR-AB20, SR-AB21, SR-AB22, SR-AB23, SR-AB24, SR-AB25, SR-AB26, SR-AB27, SR-AB28, and SR-AB29) were assessed for their ability to bind various proTGFβ1 constructs. Binding affinities of the optimized antibodies were measured by Octet against human LTBP1-proTGFβ1, human LTBP3-proTGFbl, mouse LTBP1-proTGFβ1, mouse LTBP3-proTGFbl, and GARP-proTGFβ1 complexes, essentially as described in Example 6. […] The antigens were allowed to associate for 3 minutes followed by a 5-minute dissociation. Kinetics buffer (ForteBio®) was used throughout the experiment, and KD was determined using a 1:1 fitting model for each antibody antigen pair.

[7] = target: T5, mouse LTBP1-proTGFβ1 complex (mouse, UniProt Q8CG19 339-1712; P04202 30-390); assay: Octet BLI, IgG captured
T5 construct: Exemplary entries; In the cell assays expressed from mouse LTBP1S and mouse proTGFb1 plasmids in LN229 cells; also called Mo LTBP1-proTGFβ1; MuLTBP1-ProTGFb1
T5 sequence (Q8CG19 339-1712 limits assumed, chain 1 of 2): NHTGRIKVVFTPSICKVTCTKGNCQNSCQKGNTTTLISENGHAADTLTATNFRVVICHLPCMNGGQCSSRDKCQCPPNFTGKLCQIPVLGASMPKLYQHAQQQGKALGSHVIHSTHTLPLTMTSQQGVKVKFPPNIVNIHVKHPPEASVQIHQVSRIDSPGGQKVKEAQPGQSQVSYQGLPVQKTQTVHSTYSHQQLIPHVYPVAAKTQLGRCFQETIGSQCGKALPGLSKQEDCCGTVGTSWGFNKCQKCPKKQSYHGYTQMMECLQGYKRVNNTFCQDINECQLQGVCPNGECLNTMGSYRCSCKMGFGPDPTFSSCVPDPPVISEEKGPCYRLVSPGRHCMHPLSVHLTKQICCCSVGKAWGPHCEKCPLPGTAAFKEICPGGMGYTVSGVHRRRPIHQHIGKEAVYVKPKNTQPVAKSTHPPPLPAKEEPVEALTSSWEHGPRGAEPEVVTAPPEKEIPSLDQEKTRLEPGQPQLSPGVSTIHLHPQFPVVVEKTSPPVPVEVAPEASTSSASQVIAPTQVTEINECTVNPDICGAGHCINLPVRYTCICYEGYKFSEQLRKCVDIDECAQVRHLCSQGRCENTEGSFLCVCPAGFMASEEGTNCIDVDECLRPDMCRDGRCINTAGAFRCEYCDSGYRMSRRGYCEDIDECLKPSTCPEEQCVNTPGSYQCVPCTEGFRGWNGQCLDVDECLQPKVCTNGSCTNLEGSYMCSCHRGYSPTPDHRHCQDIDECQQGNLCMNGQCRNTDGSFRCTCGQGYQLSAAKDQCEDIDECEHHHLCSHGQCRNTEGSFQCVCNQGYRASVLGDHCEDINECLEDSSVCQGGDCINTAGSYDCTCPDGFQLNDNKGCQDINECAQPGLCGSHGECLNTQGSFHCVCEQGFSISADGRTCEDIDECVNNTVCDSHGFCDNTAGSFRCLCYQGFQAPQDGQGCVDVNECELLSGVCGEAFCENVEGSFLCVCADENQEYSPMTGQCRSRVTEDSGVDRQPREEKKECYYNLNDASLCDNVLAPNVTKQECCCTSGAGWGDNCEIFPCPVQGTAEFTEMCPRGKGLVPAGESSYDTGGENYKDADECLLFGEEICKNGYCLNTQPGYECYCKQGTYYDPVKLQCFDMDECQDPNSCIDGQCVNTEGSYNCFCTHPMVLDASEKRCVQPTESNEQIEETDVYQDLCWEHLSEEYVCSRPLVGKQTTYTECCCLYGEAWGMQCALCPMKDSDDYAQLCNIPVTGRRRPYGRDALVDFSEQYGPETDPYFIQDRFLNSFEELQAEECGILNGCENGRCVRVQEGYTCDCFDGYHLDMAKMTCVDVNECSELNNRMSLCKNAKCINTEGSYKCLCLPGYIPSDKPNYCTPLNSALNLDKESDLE
T5 sequence (P04202 30-390 limits assumed, chain 2 of 2): as the sequence (P04202 30-390 limits assumed, chain 2 of 2) above
Method: as §3

[8] = target: T3, human LTBP1-proTGFβ1 complex; assay: Octet BLI, IgG captured
Method: as §3

[9] = target: T6, LTBP-proTGFβ1: transfected human proTGFβ1 presented by endogenous LTBP1/3 of LN229 cells (human); assay: cell-based or functional assay
T6 sequence (P01137 30-390): as the sequence (P01137 30-390 limits assumed, chain 2 of 2) above

[10] = target: T5, mouse LTBP1-proTGFβ1 complex; assay: cell-based or functional assay
[11] = target: T4, human LTBP3-proTGFβ1 complex; assay: Octet (bio-layer interferometry), yeast expressed IgG1Agly antibody, antigen at a single 100 nM per Example 6, 1:1 fit; value printed under the panel
[12] = target: T5, mouse LTBP1-proTGFβ1 complex; assay: as above
[13] = target: T3, human LTBP1-proTGFβ1 complex; assay: as above
[14] = target: T6, LTBP-proTGFβ1: transfected human …; assay: cell-based or functional assay; remark: listed apart in the source
[15] = target: T5, mouse LTBP1-proTGFβ1 complex; assay: cell-based or functional assay; remark: listed apart in the source
[16] = target: T3, human LTBP1-proTGFβ1 complex; assay: Octet binning; competitor (immobilized second antibody) SR-AB2
Method: as §1, §2

[17] = target: T6, LTBP-proTGFβ1: transfected human …; assay: cell-based or functional assay; remark: listed apart in the source
[18] = target: T5, mouse LTBP1-proTGFβ1 complex; assay: cell-based or functional assay; remark: listed apart in the source
[19] = target: T2, mouse LTBP3-proTGFβ1 complex; assay: Octet BLI, IgG captured
Method: as §3

[20] = target: T2, mouse LTBP3-proTGFβ1 complex; assay: Octet (bio-layer interferometry), yeast expressed IgG1Agly antibody, antigen at a single 100 nM per Example 6, 1:1 fit; value printed under the panel
[21] = target: T6, LTBP-proTGFβ1: transfected human …; assay: cell-based or functional assay; remark: listed apart in the source
[22] = target: T5, mouse LTBP1-proTGFβ1 complex; assay: cell-based or functional assay; remark: listed apart in the source

binding result [1]: no binding (tested: 100 nM)
binding result [2]: no binding (tested: 100 nM)
normalized response [3]: 0.47 fraction of uninhibited binding
normalized response [4]: 1.38 fraction of uninhibited binding
normalized response [5]: 1.08 fraction of uninhibited binding
Kd [6]: 35.9 nM
Kd [7]: 59.5 nM
Kd [8]: 39.2 nM
IC50, endogenous hLTBP assay (CAGA12 luciferase) [9]: 4.83 nM
IC50, mLTBP1 assay (CAGA12 luciferase) [10]: 25.4 nM
Kd [11]: 71 nM
Kd [12]: 102 nM
Kd [13]: 148 nM
IC50, endogenous hLTBP assay (CAGA12 luciferase) [14]: 4.83 nM
IC50, mLTBP1 assay (CAGA12 luciferase) [15]: 25.4 nM
normalized response [16]: 1.29 fraction of uninhibited binding
B1: SR-AB13 (antibody, IgG1, V domains shown)
VH: QLQLQESGPGLVKPSETLSLTCTVSGGSISSSSYYWGWIRQPPGKGLEWIGSISYSGSTYYNPSLKSRVTISVDTSKNQFSLKLSSVTAADTAVYYCARDPSYDSIAGMDVWGQGTTVTVSS
VL: DIQLTQSPSSLSASVGDRVTITCRASQSISSYLNWYQQKPGKAPKLLIYAASNLQSGVPSRFSGSGSGTDFTLTISSLQPEDFATYYCQQSFDFPFTFGGGTKVEIK
notes: Parent antibody; also called SR-13

binding result [1]: no binding (tested: 100 nM)
normalized response [3]: 1.27 fraction of uninhibited binding
normalized response [4]: 0.51 fraction of uninhibited binding
IC50, endogenous hLTBP assay (CAGA12 luciferase) [17]: 3.64 nM
IC50, mLTBP1 assay (CAGA12 luciferase) [18]: 119 nM
normalized response [5]: 0.82 fraction of uninhibited binding
Kd [7]: 14.2 nM
Kd [19]: 23 nM
Kd [12]: 79 nM
Kd [13]: 308 nM
Kd [20]: 86 nM
IC50, endogenous hLTBP assay (CAGA12 luciferase) [21]: 3.64 nM
IC50, mLTBP1 assay (CAGA12 luciferase) [22]: 119 nM
normalized response [16]: 1.53 fraction of uninhibited binding
B2: SR-AB10 (antibody, IgG1, V domains shown)
VH: QLQLQESGGGVVQPGRSLRLSCAASGFTFNNYPIHWVRQAPGKGLEWVAVMSYDGINKYYADSVKGRFTISRDNSKNTLYLQMNSLRAEDTAVYYCARPRIAARRGGFDYWGQGTLVTVSS
VL: NFMLTQPHSVSESPGKTVTISCTRSSGNIDNNYVQWYQQRPGSSPTTVIYEDNQRPSGVPDRFSGSIDSSSNSASLTISGLKTEDEADYYCQSYDSDNQGVVFGGGTKLTVL
notes: Parent antibody

Reference: patent publication US20220064276A1 (SCHOLAR ROCK, published 2022)
